{"source": "patent US20240166755A1", "about": "“CHIMERIC ANTIGEN RECEPTORS TARGETING CANCER” (University of Southern California, priority 2016, published 2024)", "binders": {"B1": {"name": "CD8SP-161-(vL-vH)-Myc-CD28z-T2A-PAC(021715-Z07) (scFv)", "chain": "DDIQMTQSSSSFSVSLGDRVTITCMASEDIYIRLAWYQQKPGNAPRLLISAATSLETGVPSRFSGSGSGKDYTLSITSLQTEDVGTYYCQQYWSSPWTFGGGTKLEINGGGGSGGGGSGGGGSDVQLQESGPGLVKPSQSLSLTCTVTGYSITSDYTWNWIRQFPGNKLEWMGYITYSGSTSYNPSLKSRNSITRDTSKNQFFLQLNSVTTEDTATYYCARLGRRYTMDYWGQGTSVTVSSTREQKLISEEDLKIEVMYPPPYLDNEKSNGTIIHVKGKHLCPSPLFPGPSKPFWVLVVVGGVLACYSLLVTVAFIIFWVRSKRSRLLHSDYMNMTPRRPGPTRKHYQPYAPPRDFAAYRSRVKFSRSADAPAYQQGQNQLYNELNLGRREEYDVLDKRRGRDPEMGGKPRRKNPQEGLYNELQKDKMAEAYSEIGMKGERRRGKGHDGLYQGLSTATKDTYDALHMQALPPRSSGSGEGRGSLLTCGDVEENPG"}, "B2": {"name": "CD8SP-175-(vL-vH)-Myc-CD28z-T2A-PAC(031615-Q04) (scFv)", "chain": "DQIVLTQSPAIMSASPGEKVTISCSASSSVSYMYWYQQKPGSSPKPWIYRTSNLASGVPARFSGSGSGTSYSLTISNMEAEDAAAYYCQQYHSYPTTFGGGTKLEVKGGGGSGGGGSGGGGSEVQLVESGGGLVQPKGSLKLSCAASGFSFNTYAMNWVRQAPGKGLEWIAHIRSKSNNFATYYADSVKDRFSISRDASENILFLQMNNLKTEDTAMYYCVRQGGDFPMDYWGQGTSVTVSSTREQKLISEEDLKIEVMYPPPYLDNEKSNGTIIHVKGKHLCPSPLFPGPSKPFWVLVVVGGVLACYSLLVTVAFIIFWVRSKRSRLLHSDYMNMTPRRPGPTRKHYQPYAPPRDFAAYRSRVKFSRSADAPAYQQGQNQLYNELNLGRREEYDVLDKRRGRDPEMGGKPRRKNPQEGLYNELQKDKMAEAYSEIGMKGERRRGKGHDGLYQGLSTATKDTYDALHMQALPPRSSGSGEGRGSLLTCGDVEENPG"}, "B3": {"name": "CD8SP-178-(vL-vH)-Myc-CD28z-T2A-PAC(031615-R04) (scFv)", "chain": "DIVMTQAAPSIPVTPGESVSISCRSDKSLLHSNGNTYLFWFLQRPGQSPQLLIYRMSNLASGVPDRFSGSGSGTAFTLRISGVEAEDVGVYYCMQHLEYPYTFGGGTKLEIKGGGGSGGGGSGGGGSQVQLQQSGPELVKPGASVKMSCKASGYAFSSSWLNWVRQRPGKGLEWIGRIYPGDGENHYNGKFKGKATLTADKSSSTGYMQLSSLTSEDSAVYFCASYYEGGYWGQGTLITVSATREQKLISEEDLKIEVMYPPPYLDNEKSNGTIIHVKGKHLCPSPLFPGPSKPFWVLVVVGGVLACYSLLVTVAFIIFWVRSKRSRLLHSDYMNMTPRRPGPTRKHYQPYAPPRDFAAYRSRVKFSRSADAPAYQQGQNQLYNELNLGRREEYDVLDKRRGRDPEMGGKPRRKNPQEGLYNELQKDKMAEAYSEIGMKGERRRGKGHDGLYQGLSTATKDTYDALHMQALPPRSSGSGEGRGSLLTCGDVEENPG"}, "B4": {"name": "CD8SP-AB317-(vL-vH)-Myc-CD28z-T2A-PAC(031615-T04) (scFv)", "chain": "DIVLTQSPASLAVSLGQSVTISCRASESVEYYGTSLMQWYQQKPGQPPKLLIYGASNVESGVPARFSGSGSGTDFSLNIHPVEEDDIAMYFCQQSRKVPWTFGGGTKLEIKGGGGSGGGGSGGGGSEVKLVESGGGLVKPGGSRKLSCAASGFTFSSYTMSWVRQTPAKRLEWVATISSGSSTIYYADTVKGRFTISRDNAKNTLFLQMTSLRSEDTAMYYCARRWFLDCWGQGTTLTVSSTREQKLISEEDLKIEVMYPPPYLDNEKSNGTIIHVKGKHLCPSPLFPGPSKPFWVLVVVGGVLACYSLLVTVAFIIFWVRSKRSRLLHSDYMNMTPRRPGPTRKHYQPYAPPRDFAAYRSRVKFSRSADAPAYQQGQNQLYNELNLGRREEYDVLDKRRGRDPEMGGKPRRKNPQEGLYNELQKDKMAEAYSEIGMKGERRRGKGHDGLYQGLSTATKDTYDALHMQALPPRSSGSGEGRGSLLTCGDVEENPG"}, "B5": {"name": "CD8SP-12E10-(vL-vH)-Myc-CD28z-T2A-PAC(031615-S03) (scFv)", "chain": "DQVQLQQSGPGLVKPSETLSLTCTVSGDSISSYYWSWIRQPPGKGLEWIGYIYYSGSTNYNPSLKSRVTISVDTSKSQFSLKLSSVTAADTAVYYCARGRYFDVWGRGTMVTSSGGGGSGGGGSGGGGSSSYVLTQPPSVSGSPGQSITISCTGTSSDVGGYNYVSWYQQHPGKAPKLMIYEGSKRPSGVSNRFSGSKSGNTASLTISGLQAEDEADYYCSSYTTRSTRVFGGGTKLTVLGAAATREQKLISEEDLKIEVMYPPPYLDNEKSNGTIIHVKGKHLCPSPLFPGPSKPFWVLVVVGGVLACYSLLVTVAFIIFWVRSKRSRLLHSDYMNMTPRRPGPTRKHYQPYAPPRDFAAYRSRVKFSRSADAPAYQQGQNQLYNELNLGRREEYDVLDKRRGRDPEMGGKPRRKNPQEGLYNELQKDKMAEAYSEIGMKGERRRGKGHDGLYQGLSTATKDTYDALHMQALPPRSSGSGEGRGSLLTCGDVEENPG"}}}
{"target": "human MPL (thrombopoietin receptor) (human) (UniProt P40238)", "assay": "cell-based or functional assay", "units": {"GFP induction (%) in CAR-expressing Jurkat-NFAT-EGFP cells, target cell line HEL": "%", "GFP induction (%) in CAR-expressing Jurkat-NFAT-EGFP cells, target cell line RAJI-Mpl": "%", "GFP induction (%) in CAR-expressing Jurkat-NFAT-EGFP cells, target cell line RAJI-vector": "%"}}
{"binder": "B1", "GFP induction (%) in CAR-expressing Jurkat-NFAT-EGFP cells, target cell line HEL": 14, "GFP induction (%) in CAR-expressing Jurkat-NFAT-EGFP cells, target cell line RAJI-Mpl": 11, "GFP induction (%) in CAR-expressing Jurkat-NFAT-EGFP cells, target cell line RAJI-vector": 5}
{"binder": "B2", "GFP induction (%) in CAR-expressing Jurkat-NFAT-EGFP cells, target cell line HEL": 33, "GFP induction (%) in CAR-expressing Jurkat-NFAT-EGFP cells, target cell line RAJI-Mpl": 18, "GFP induction (%) in CAR-expressing Jurkat-NFAT-EGFP cells, target cell line RAJI-vector": 11}
{"binder": "B3", "GFP induction (%) in CAR-expressing Jurkat-NFAT-EGFP cells, target cell line HEL": 2, "GFP induction (%) in CAR-expressing Jurkat-NFAT-EGFP cells, target cell line RAJI-Mpl": 3, "GFP induction (%) in CAR-expressing Jurkat-NFAT-EGFP cells, target cell line RAJI-vector": 4}
{"binder": "B4", "GFP induction (%) in CAR-expressing Jurkat-NFAT-EGFP cells, target cell line HEL": 1, "GFP induction (%) in CAR-expressing Jurkat-NFAT-EGFP cells, target cell line RAJI-Mpl": 6, "GFP induction (%) in CAR-expressing Jurkat-NFAT-EGFP cells, target cell line RAJI-vector": 3}
{"binder": "B5", "GFP induction (%) in CAR-expressing Jurkat-NFAT-EGFP cells, target cell line HEL": 5, "GFP induction (%) in CAR-expressing Jurkat-NFAT-EGFP cells, target cell line RAJI-Mpl": 6, "GFP induction (%) in CAR-expressing Jurkat-NFAT-EGFP cells, target cell line RAJI-vector": 4}
